Measurements as given in patent CN117866905A (BEILAI PHARMACEUTICAL CO LTD, dated 2024).

B1: G4-H10:Fc融合蛋白 (IL-17Nb secreted by G4-H10-MSC; VHH-(GGGGS)3-VHH-IgG4 Fc) (Fc fusion)
chain: QVQLVESGGGLVQPGGSLRLSCAASGEKLDYFAIGWFRQAPGKEREVVSCVTSSGSSTNYLSSVKDRFTISIDNAKNTVYLQMNSLKPEDTAIYYCASTILLCSDYISAFGTWGQGTQVTVASGGGGSGGGGSGGGGSEVQLVESGGGLVQPGGSLRLSCAASGFSIHIYAMGWYRQAPGKQRELVATITRGGVTNNADSVKGRFTISRDNAKNTAYLQMNSLKPEDTAVYYCNAGGTNGGYWGQGTQVTVSSAPEFLGGPSVFLFPPKPKDTLMISRTPEVTCVVVDVSQEDPEVQFNWYVDGVEVHNAKTKPREEQFNSTYRVVSVLTVLHQDWLNGKEYKCKVSNKGLPSSIEKTISKAKGQPREPQVYTLPPSQEEMTKNQVSLTCLVKGFYPSDIAVEWESNGQPENNYKTTPPVLDSDGSFFLYSRLTVDKSRWQEGNVFSCSVMHEALHNHYTQKSLSLSLGK
B2: 阳性对照抗体依奇珠单抗 (Ixekizumab) (antibody, human IgG4 S228P, kappa, V domains shown)
VH: QVQLVQSGAEVKKPGSSVKVSCKASGYSFTDYHIHWVRQAPGQGLEWMGVINPMYGTTDYNQRFKGRVTITADESTSTAYMELSSLRSEDTAVYYCARYDYFTGTGVYWGQGTLVTVSS
VL: DIVMTQTPLSLSVTPGQPASISCRSSRSLVHSRGNTYLHWYLQKPGQSPQLLIYKVSNRFIGVPDRFSGSGSGTDFTLKISRVEAEDVGVYYCSQSTHLPFTFGQGTKLEIKR
notes: also called 阳性抗体

Columns and labels:
[1] = target: 生物素化的IL-17A (ACRO Biosystems kit EP-139) (UniProt Q16552); assay: competition ELISA kit (ACRO EP-139); IL-17RA coated, biotinylated IL-17A, supernatant diluted 5-fold; inhibition of IL-17A/IL-17RA binding
[2] = target: T1, IL-17A重组蛋白(抗原), C端6×His标签 (human, UniProt Q16552 24-155, limits assumed, biotin in the ELISA of paragraph 227 (Biotin-IL-17A-His); site not stated); assay: ELISA; antibody coated at 2 ug/mL, Biotin-IL-17A-His titrated from 10 ug/mL in 5-fold steps, HRP-streptavidin
T1 construct: Expressed in E. coli BL21 from pET28a and purified on a nickel column; also called IL-17A-His; Biotin-IL-17A-His
T1 sequence: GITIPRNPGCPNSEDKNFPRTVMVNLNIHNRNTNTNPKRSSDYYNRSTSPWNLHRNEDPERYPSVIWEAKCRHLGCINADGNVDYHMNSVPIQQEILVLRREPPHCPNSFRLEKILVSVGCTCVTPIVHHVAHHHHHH

[3] = target: T1, IL-17A重组蛋白(抗原), C端6×His标签; assay: cell-based or functional assay

结合抑制率 [1]	EC50 [2]	阻断Human IL-17A蛋白激活293F-IL-17RA-IL-17Rc-ACT1-NFκB-Luc, IC50 [3]	Binder
60%			B1
	10.1 µg/mL	2.23 nM	B2
